This note sets out measurements from patent CN101386648A (MICROORGANISM EPIDEMIC INST OF, dated 2009).

Numbering of substitutions follows the chain as printed.

Assay [1] deals with T1, B型肉毒神经毒素 (botulinum neurotoxin type B) (Clostridium botulinum, UniProt P10844 2-1291).
T1 sequence: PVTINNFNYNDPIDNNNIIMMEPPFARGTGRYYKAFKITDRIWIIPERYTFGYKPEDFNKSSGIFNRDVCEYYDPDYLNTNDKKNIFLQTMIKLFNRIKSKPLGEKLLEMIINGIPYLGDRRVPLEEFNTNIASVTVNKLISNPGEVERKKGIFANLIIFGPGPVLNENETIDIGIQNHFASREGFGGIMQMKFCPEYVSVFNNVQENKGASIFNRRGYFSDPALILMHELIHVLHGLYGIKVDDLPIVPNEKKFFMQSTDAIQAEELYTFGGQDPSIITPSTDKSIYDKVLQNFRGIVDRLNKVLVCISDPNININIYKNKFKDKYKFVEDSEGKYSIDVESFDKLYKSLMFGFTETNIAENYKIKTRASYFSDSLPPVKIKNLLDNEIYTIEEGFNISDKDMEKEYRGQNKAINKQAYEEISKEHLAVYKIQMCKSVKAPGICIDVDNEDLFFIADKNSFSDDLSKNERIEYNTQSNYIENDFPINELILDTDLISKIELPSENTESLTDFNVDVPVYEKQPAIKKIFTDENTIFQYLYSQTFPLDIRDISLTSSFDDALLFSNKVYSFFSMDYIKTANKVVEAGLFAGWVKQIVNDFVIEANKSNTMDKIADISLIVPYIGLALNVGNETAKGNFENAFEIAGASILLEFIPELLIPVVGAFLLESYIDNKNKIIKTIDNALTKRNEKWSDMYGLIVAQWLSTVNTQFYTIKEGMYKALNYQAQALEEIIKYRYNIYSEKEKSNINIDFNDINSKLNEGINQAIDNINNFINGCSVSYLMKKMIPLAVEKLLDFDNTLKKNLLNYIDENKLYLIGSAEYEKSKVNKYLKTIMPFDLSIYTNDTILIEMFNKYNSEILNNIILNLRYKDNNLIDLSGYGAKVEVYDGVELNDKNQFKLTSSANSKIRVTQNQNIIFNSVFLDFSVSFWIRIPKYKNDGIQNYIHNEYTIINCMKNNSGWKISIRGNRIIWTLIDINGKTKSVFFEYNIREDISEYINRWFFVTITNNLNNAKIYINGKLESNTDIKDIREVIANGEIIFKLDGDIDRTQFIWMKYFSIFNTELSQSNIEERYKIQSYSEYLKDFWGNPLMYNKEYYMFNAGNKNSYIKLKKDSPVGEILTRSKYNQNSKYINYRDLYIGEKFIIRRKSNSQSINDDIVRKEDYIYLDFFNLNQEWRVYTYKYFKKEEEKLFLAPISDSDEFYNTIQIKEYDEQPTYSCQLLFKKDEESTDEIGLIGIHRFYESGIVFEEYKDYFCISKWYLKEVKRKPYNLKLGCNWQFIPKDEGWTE
Description: SPR (Biacore 3000, CM5 chip), […]. In general terms: In SPR one partner is held on a chip, and binding of the other changes the refractive index at the surface.

The target in assay [2] is T2, F型肉毒神经毒素 (botulinum neurotoxin type F) (Clostridium botulinum, UniProt P30996 1-1274).
T2 sequence: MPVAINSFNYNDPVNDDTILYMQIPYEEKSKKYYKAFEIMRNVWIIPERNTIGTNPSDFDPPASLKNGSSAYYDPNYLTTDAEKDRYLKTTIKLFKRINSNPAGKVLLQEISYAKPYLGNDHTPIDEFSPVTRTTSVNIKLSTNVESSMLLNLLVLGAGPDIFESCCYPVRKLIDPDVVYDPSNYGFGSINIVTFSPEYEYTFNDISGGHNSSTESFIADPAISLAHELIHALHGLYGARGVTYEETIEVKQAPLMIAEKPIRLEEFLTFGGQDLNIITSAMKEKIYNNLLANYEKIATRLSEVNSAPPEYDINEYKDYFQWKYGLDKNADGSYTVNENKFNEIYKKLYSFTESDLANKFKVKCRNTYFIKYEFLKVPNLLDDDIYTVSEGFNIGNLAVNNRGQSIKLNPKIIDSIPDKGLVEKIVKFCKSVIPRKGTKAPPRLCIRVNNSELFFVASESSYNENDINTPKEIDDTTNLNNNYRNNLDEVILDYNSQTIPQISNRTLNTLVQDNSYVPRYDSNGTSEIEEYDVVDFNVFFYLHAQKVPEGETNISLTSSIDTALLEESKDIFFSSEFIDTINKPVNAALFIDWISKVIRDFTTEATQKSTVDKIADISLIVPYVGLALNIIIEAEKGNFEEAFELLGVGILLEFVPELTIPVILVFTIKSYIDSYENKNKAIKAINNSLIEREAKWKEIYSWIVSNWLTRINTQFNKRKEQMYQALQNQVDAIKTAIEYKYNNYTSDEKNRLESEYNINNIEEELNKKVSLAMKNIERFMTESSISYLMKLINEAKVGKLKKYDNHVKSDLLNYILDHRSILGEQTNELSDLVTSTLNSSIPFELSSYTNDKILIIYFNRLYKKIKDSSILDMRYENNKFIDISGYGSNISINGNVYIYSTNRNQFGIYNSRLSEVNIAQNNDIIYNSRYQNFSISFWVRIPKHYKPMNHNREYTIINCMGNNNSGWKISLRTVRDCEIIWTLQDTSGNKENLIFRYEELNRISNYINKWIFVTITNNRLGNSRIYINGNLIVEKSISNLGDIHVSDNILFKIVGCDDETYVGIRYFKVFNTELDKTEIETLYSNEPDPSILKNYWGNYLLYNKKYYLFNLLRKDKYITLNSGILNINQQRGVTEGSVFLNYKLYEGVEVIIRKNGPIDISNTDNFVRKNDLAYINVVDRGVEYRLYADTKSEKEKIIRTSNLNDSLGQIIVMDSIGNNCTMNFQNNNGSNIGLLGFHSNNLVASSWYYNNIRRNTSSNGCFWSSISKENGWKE
The experiment in a line: ELISA. On the technique in general: An ELISA detects its analyte on a solid surface through an enzyme-linked reagent.

Assay [3] has as its target T3, E型肉毒神经毒素 (botulinum neurotoxin type E) (Clostridium botulinum, UniProt Q00496 2-1251).
T3 sequence: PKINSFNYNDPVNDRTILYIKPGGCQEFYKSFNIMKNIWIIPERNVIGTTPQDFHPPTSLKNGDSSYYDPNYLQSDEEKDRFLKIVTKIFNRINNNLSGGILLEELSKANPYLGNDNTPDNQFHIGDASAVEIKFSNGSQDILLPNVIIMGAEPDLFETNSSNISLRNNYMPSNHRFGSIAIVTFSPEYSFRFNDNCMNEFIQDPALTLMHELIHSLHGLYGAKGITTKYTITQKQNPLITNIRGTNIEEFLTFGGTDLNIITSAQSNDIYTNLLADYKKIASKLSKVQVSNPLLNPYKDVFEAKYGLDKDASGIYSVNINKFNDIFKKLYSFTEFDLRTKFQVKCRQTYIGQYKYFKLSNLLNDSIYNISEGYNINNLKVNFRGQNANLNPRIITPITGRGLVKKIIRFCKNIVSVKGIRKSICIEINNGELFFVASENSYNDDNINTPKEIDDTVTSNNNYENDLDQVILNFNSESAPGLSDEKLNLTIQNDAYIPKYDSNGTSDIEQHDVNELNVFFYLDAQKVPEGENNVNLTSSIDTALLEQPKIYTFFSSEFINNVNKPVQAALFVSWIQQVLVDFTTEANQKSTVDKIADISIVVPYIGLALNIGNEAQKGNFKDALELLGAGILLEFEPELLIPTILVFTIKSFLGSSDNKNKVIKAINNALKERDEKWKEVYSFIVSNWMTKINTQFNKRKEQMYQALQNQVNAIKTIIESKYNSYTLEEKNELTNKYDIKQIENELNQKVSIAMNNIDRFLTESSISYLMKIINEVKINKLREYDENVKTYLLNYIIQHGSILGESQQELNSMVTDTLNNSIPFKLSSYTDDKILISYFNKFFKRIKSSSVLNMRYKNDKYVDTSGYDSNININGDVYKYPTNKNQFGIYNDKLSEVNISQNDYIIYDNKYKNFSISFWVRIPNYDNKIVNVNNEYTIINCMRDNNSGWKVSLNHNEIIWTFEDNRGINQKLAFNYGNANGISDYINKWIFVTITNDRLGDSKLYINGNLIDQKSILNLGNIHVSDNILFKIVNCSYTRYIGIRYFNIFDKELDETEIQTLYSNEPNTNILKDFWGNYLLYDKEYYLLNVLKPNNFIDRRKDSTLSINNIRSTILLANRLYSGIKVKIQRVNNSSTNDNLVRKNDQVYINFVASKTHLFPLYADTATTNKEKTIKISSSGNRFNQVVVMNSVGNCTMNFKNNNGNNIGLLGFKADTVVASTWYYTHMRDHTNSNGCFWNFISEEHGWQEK
Description: ELISA.

The target in assay [4] is A型肉毒神经毒素 (botulinum neurotoxin type A) (Clostridium botulinum, UniProt P0DPI0 2-1296). The experiment in a line: ELISA.
A型肉毒神经毒素 (botulinum neurotoxin type A), sequence (P0DPI0 2-1296 limits assumed): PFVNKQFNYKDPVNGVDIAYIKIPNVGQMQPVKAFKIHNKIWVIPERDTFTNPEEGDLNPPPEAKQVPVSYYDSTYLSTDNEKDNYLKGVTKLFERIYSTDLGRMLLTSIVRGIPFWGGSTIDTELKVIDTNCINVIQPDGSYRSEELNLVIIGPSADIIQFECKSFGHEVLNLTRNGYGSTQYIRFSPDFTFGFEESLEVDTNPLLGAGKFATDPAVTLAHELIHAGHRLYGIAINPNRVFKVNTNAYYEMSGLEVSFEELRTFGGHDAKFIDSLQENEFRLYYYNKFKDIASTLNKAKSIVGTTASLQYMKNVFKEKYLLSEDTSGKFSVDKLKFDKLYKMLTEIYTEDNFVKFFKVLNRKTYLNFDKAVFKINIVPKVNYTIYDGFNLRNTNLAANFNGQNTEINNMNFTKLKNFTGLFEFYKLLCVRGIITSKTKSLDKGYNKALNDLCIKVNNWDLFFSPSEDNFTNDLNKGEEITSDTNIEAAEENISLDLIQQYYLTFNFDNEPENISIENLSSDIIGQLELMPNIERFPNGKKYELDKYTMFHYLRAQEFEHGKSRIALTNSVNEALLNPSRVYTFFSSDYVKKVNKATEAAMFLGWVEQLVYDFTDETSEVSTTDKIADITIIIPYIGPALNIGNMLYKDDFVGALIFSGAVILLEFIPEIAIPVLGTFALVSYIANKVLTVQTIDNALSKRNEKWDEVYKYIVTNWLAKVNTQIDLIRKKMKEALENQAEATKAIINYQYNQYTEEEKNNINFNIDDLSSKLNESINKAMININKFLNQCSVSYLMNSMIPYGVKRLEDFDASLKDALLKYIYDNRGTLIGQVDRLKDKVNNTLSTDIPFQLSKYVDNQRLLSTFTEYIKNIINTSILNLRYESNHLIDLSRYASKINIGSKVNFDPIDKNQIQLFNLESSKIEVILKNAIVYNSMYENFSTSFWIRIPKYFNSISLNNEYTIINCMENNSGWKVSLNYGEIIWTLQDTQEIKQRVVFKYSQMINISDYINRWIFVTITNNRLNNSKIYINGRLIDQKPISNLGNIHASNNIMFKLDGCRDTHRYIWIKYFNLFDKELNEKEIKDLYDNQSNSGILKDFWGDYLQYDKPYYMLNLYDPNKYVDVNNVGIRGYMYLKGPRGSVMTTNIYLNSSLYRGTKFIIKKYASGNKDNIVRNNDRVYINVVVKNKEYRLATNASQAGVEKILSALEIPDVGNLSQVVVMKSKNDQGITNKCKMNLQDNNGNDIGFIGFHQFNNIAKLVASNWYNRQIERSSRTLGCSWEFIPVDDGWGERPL

B1: 人源化抗B型肉毒神经毒素中和性抗体HuBNbP8 (recombinant MBP-scFv fusion protein expressed from pMAL-HuFv) (scFv)
scFv: AQVQLVQSGAEVVKPGASVKLSCKASGYTFTSYYIYWVKQRPGQGLGWIGEIYPSNGGTNFNEKFKTKATLTVDKSASTAYMQLSSLTSEDSTVYYCARMGNYGGSYFDYWGQGTTLTVSSGGGGSGGGGSGGGGSDIVLTQSPATLSVTPGESVSLSCGASQSISNNLHWYQQKSHESPRLLIKFASQSISGIPSKFSGSGSGTDFSLSINSLETEDFGVFFCQQSDTWPYTFGGGTKLEIKRAAAE
Regarding B1, the affinity in assay [1], expressed as Kd, was 1.34 nM. For the same molecule, the binding result in assay [2], in assay [3] and in assay [4] was “no binding” in each case.

B2: 鼠源抗B型肉毒神经毒素中和性抗体MuBNbP8 (recombinant MBP-scFv fusion protein expressed from pMAL-MuFv) (scFv)
scFv: B1 scFv with Q4K, V6Q, V12L, A77S, E153D
As for B2, the binding result in assay [2], in assay [3] and in assay [4] was “no binding” in each case.
